From US20250215467A1, “L-THREONINE TRANSALDOLASES AND USES THEREOF” (University of Delaware, priority 2022, published 2025)

What was measured:
E. coli RARE strain [1] = test: β-OH-nsAA biosynthesis during aerobic fermentation in E. coli RARE strain; type: cell-based, Escherichia coli; conditions: 1 mM 3, 20 h
Procedure: Metabolites of interest were quantified via high-performance liquid chromatography (HPLC) using an Agilent 1260 Infinity model equipped with a Zorbax Eclipse Plus-C18 column. To quantify aldehyde and β-OH-nsAAs, an initial mobile phase of solvent A/B=95/5 was used (solvent A, water+0.1% TFA; solvent B, acetonitrile+0.1% TFA) and maintained for 5 min. A gradient elution was performed (A/B) as follows: gradient from 95/5 to 50/50 for 5-12 min, gradient from 50/50 to 0/100 for 12-13 min, and gradient from 0/100 to 95/5 for 13-14 min. A flow rate of 1 mL min-1 was maintained, and absorption was monitored at 210, 250 and 280 nm.
For screening TTA activity in aerobically growing cells, we inoculated strains transformed with plasmids expressing TTAs into 300 μL volumes of MOPS EZ Rich media in a 96-deep-well plate with appropriate antibiotic added to maintain plasmids (50 μg/mL kanamycin (Kan)). Cultures were incubated at 37° C. with shaking at 1000 RPM and an orbital radius of 1.25 mm until an OD600 of 0.5-0.8 was reached. OD600 was measured using a SPECTRAMAX® i3× plate reader. At this point, the TTAs were induced with addition of 0.2 nM aTc for TTA expression. Then, 2 h following induction of the TTAs, 1 mM aldehyde was added to the culture. Cultures were then incubated over 20 h at 30° C. with metabolite concentration measured via supernatant sampling and submission to HPLC. […]

E. coli RARE strain [2] = test: CAR-TTA coupled production in aerobically growing E. coli RARE; type: cell-based, Escherichia coli; conditions: coupled to NiCAR, 2 mM acid, HPLC after 20 h
Procedure: For the CAR-TTA coupled assay, the strains transformed with a plasmid expressing a TTA and a second plasmid expressing a CAR were grown under identical conditions with the addition of 34 μg/mL chloramphenicol (Cm) to maintain the additional plasmid. Further, 0.2 nM aTc and 1 mM IPTG were added to induce protein expression and 2 mM aldehyde, or acid was added at the time of induction. Following induction, the cultures were grown for 20 h at 30° C. while shaking at 1000 RPM with product concentrations measured via supernatant sampling and submission to HPLC.
Finally, to partially address the toxicity of supplemented aldehydes in fermentative contexts, we investigated whether we could couple a TTA to a carboxylic acid reductase (CAR) to create a steady and low-level supply of aldehydes biosynthesized from carboxylic acid precursors. […]
With the promise of the CAR-TTA coupling, we wanted to investigate the generalizability of this pathway to produce a β-OH-nsAA that has a bio-orthogonal conjugation handle. […] Finally, given the potential to produce novel peptide or protein products in cells, we wanted to confirm the activity of this cascade in growing cells, which was successful for all CAR-TTA pairings with MavCAR producing the highest titer determined by product peak area after 20 h (FIG. 20d). […]

B1: PbTTA: L-threonine transaldolase, SEQ ID NO: 16, Parachlamydiales bacterium, MBN2478762.1 (protein, listed as Parachlamydiales bacterium)
chain: METSLKDFETILHLINKEEIDSNDTIHMTANENIMSKLSKHYLKSTLSYRYHVGMFDDQKNLTVSRSCLIKNSLMLRCLSPIFLLEQQAREYVKKMFFAEYADFRPLSGMHTVFCILSTLTKPNDRVYVFTTESVGHAATVSLLKSLGRKVSFIPFCEKKLDIDLEKLSKQILIEKPNAILFDFGTPFYPLPIREIREIVGNDVKMIYDASHVLGLIAGGQFQNPLLEGCDVLIGNTHKTFPGPQKGMILYKNKSLGKEIATEIFKSAISAQHTHHAIALYVTIIEMYIHGKEYANQIIKNNHALSQALINEGFKIFKRKNQFSLSHMIAITGDFPIDHHVACADLHNSNISTNSRILYDFPAVRIGVQEVTRKGMKEKDMVQLAKFFKEIILDRKNISSKIKEFNNKFNSIEYSLDEIYEKLF
In the case of B1, the β-OH-nsAA titer (E. coli RARE strain [1]; 100 mM L-Thr) is reported as 0.61 ± 0.04 mM, the β-OH-nsAA titer (E. coli RARE strain [1]; natural L-Thr levels) is reported as 0.13 ± 0.01 mM and the “β-OH-nsAA production from 4-formyl benzoic acid” value (E. coli RARE strain [2]) is reported as “observed a peak corresponding to the β-OH-nsAA”.
